Target: mono-ubiquitin (UniProt P0CG48 1-76)
Experiment: MST

Kd: 57.7 µM
B1: human α5 subunit, wild type, recombinant (natural protein)
chain: MFLTRSEYDRGVNTFSPEGRLFQVEYAIEAIKLGSTAIGIQTSEGVCLAVEKRITSPLMEPSSIEKIVEIDAHIGCAMSGLIADAKTLIDKARVETQNHWFTYNETMTVESVTQAVSNLALQFGEEDADPGAMSRPFGVALLFGGVDEKGPQLFHMDPSGTFVQCDARAIGSASEGAQSSLQEVYHKSMTLKEAIKSSLIILKQVMEEKLNATNIELATVQPGQNFHMFTKEELEEVIKDI
modifications: labelled with RED-NHS 2nd Generation dye
